Assay results as given in patent publication US20130217572A1, “SPECIFIC DELIVERY OF AGROCHEMICALS” (VRIJE UNIVERSITEIT BRUSSEL, priority 2010, published 2013).

Assays:
potato lectin (Sigma) [1] = target: T1, potato lectin (Sigma) (potato, UniProt Q9S8M0 23-323); assay: microcapsule retention; K: amine capsules, BS3 two-step, 1 ug VHH/cm2; potato lectin coat 1 ug/ml; 10% coverage
T1 construct: Bought glycoprotein, coated on ELISA plates
T1 sequence (looked up): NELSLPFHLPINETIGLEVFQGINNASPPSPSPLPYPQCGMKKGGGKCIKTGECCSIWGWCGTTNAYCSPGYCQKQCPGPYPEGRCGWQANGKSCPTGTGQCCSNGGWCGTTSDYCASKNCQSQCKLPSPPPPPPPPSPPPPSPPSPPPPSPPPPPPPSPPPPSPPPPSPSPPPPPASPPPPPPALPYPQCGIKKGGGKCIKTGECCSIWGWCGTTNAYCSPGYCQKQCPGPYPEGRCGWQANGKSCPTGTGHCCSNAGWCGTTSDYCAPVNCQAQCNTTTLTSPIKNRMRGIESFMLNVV

potato lectin (Sigma) [2] = target: T1, potato lectin (Sigma); assay: microcapsule retention; G: amine capsules, BS3 one-step, 1 ug VHH/cm2; potato lectin coat 1 ug/ml; 100% coverage
potato lectin (Sigma) [3] = target: T1, potato lectin (Sigma); assay: microcapsule retention; K: amine capsules, BS3 two-step, 1 ug VHH/cm2; potato lectin coat 10 ug/ml; 10% coverage
potato lectin (Sigma) [4] = target: T1, potato lectin (Sigma); assay: microcapsule retention; H: amine capsules, BS3 one-step, 0.1 ug VHH/cm2; potato lectin coat 1 ug/ml; 10% coverage
potato lectin (Sigma) [5] = target: T1, potato lectin (Sigma); assay: microcapsule retention; L: amine capsules, BS3 two-step, 0.1 ug VHH/cm2; potato lectin coat 1 ug/ml; 10% coverage
potato lectin (Sigma) [6] = target: T1, potato lectin (Sigma); assay: microcapsule retention; L: amine capsules, BS3 two-step, 0.1 ug VHH/cm2; potato lectin coat 10 ug/ml; 10% coverage
potato lectin (Sigma) [7] = target: T1, potato lectin (Sigma); assay: microcapsule retention; C: carboxyl capsules, EDC/Sulfo-NHS, 1 ug VHH/cm2; potato lectin coat 100 ug/ml; 10% coverage
potato lectin (Sigma) [8] = target: T1, potato lectin (Sigma); assay: microcapsule retention; C: carboxyl capsules, EDC/Sulfo-NHS, 1 ug VHH/cm2; potato lectin coat 100 ug/ml; 100% coverage
potato lectin (Sigma) [9] = target: T1, potato lectin (Sigma); assay: microcapsule retention; D: carboxyl capsules, EDC/Sulfo-NHS, 0.1 ug VHH/cm2; potato lectin coat 10 ug/ml; 10% coverage
potato lectin (Sigma) [10] = target: T1, potato lectin (Sigma); assay: microcapsule retention; D: carboxyl capsules, EDC/Sulfo-NHS, 0.1 ug VHH/cm2; potato lectin coat 10 ug/ml; 100% coverage
potato lectin (Sigma) [11] = target: T1, potato lectin (Sigma); assay: microcapsule retention; D: carboxyl capsules, EDC/Sulfo-NHS, 0.1 ug VHH/cm2; potato lectin coat 100 ug/ml; 10% coverage
potato lectin (Sigma) [12] = target: T1, potato lectin (Sigma); assay: microcapsule retention; D: carboxyl capsules, EDC/Sulfo-NHS, 0.1 ug VHH/cm2; potato lectin coat 100 ug/ml; 100% coverage
gum arabic = assay: VHH binding to gum arabic in ELISA; design: species or system acacia tree
Description: Titration of VHH antibody fragments was performed on ELISA plates (Maxisorp, Nunc) coated with 100 μl per well 100 μg/ml gum arabic in 50 mM carbonate pH9.6. Plates were coated at 4° C. overnight and coating was continued at room temperature for 1 hour on the next day. Plates were washed three times with PBS/0.05%-TWEEN®-20 and blocked with 5% skimmed milk in PBS for 1 hour. Four-fold serial dilutions of purified VHH antibody fragments were prepared in 1% MPBS/0.05%-TWEEN®-20 in polypropylene 96-well plates. Antibody concentrations ranged from 3 μg/ml to 12 ng/ml. Antibody dilutions were transferred to the gum arabic-coated plates and VHH antibody fragments were allowed to bind for 1 hour at room temperature. Bound VHH were detected with sequential incubations with monoclonal mouse anti-histidine antibodies (Abd Serotec) and rabbit anti-mouse IgG whole molecule antibodies conjugated with alkaline phosphatase (RaM/AP) (Sigma) in 1% MPBS/0.05%-TWEEN®-20. Unbound antibodies were removed by washing three times with PBS/0.05%-TWEEN®-20 after each antibody incubation. The plates were washed an additional two times with PBS and 100 μl pNPP disodium hexahydrate substrate (Sigma) was added to each well. The absorbance at 405 nm was measured and plotted as function of antibody concentration (see Table 1).

potato leaf discs = assay: VHH binding at different temperatures; design: species or system potato (variety Désirée); details: 5 μg/ml in PBS; temperature range from 4° C. to 55° C.
Description: In order to test applicability of VHH as binders for greenhouse or field applications where binding supposedly may occur at different and sometimes even extreme temperatures, a leaf dip VHH binding experiment at different temperatures was used. Temperatures used were 4° C., room temperature, 37° C., 55° C., or 70° C. ø 8 mm potato leaf discs (variety Désirée) were cut using a puncher tool. The leaf discs were equilibrated to different temperatures by washing three times with PBS at different temperatures. Hexahistidine-tagged VHH were diluted to 5 μg/ml in PBS at different temperatures, added to the corresponding equilibrated leaf discs, and binding of VHH was allowed for 1 hour at different temperatures. After incubation with VHH, leaf discs were washed five times with PBS at room temperature. Bound VHH were detected by incubation with monoclonal mouse anti-histidine antibodies directly conjugated with Alexa-488 fluorescent dye (Abd Serotec) in PBS for 1 hour at room temperature. Unbound anti-histidine antibodies were removed by washing five times with PBS at room temperature. Leaf discs were analyzed for bound VHH with microscopy. […] Please note that leaf discs severely suffer when submerged in PBS at 70° C. for 1 hour but that binding of VHH was still detected.

unrelated antigens [13] = assay: VHH-coupled Uvitex OB microcapsules retained on wells coated with unrelated antigen; 20% surface coverage
unrelated antigens [14] = assay: VHH-coupled Uvitex OB microcapsules retained on wells coated with unrelated antigen; 100% surface coverage
unrelated antigens [15] = assay: VHH-coupled lambda-cyhalothrin microcapsules retained on wells coated with unrelated antigen; 20% surface coverage

Control VHH
microcapsule counts (microcapsules) (potato lectin (Sigma) [1]): 215 | microcapsule counts (microcapsules) (potato lectin (Sigma) [2]): 46 | microcapsule counts (microcapsules) (potato lectin (Sigma) [3]): 197 | microcapsule counts (microcapsules) (potato lectin (Sigma) [4]): 36 | microcapsule counts (microcapsules) (potato lectin (Sigma) [5]): 116 | microcapsule counts (microcapsules) (potato lectin (Sigma) [6]): 186 | microcapsule counts (microcapsules) (potato lectin (Sigma) [7]): 55 | microcapsule counts (microcapsules) (potato lectin (Sigma) [8]): 297 | microcapsule counts (microcapsules) (potato lectin (Sigma) [9]): 118 | microcapsule counts (microcapsules) (potato lectin (Sigma) [10]): 475 | microcapsule counts (microcapsules) (potato lectin (Sigma) [11]): 125 | microcapsule counts (microcapsules) (potato lectin (Sigma) [12]): 515

B1: VHH 3E6 (VHH)
VHH: QVQLQESGGGLVQPGGTLSLSCAASGFNVRWYGMGWFRQAPGKEREGVACISALQETTAYADSVKGRFTLSRDNPKNTLSLQMNNLQPEDTGVYYCATTDCDDSSRMTYTSYLGQGTQVTVSS
notes: also called Monovalent VHH 3E6
absorbance at 405 nm (gum arabic; Table 2, gum arabic coat, VHH 3 μg/ml): 0.882 | absorbance at 405 nm (gum arabic; [VHH] 0.0117188 μg/ml (0.78125 nM), gum arabic 100 μg/ml): 0.392 | absorbance at 405 nm (gum arabic; [VHH] 0.04688 μg/ml (3.125 nM), gum arabic 100 μg/ml): 0.905 | absorbance at 405 nm (gum arabic; [VHH] 0.1875 μg/ml (12.5 nM), gum arabic 100 μg/ml): 1.518 | absorbance at 405 nm (gum arabic; [VHH] 0.75 μg/ml (50 nM), gum arabic 100 μg/ml): 1.904 | absorbance at 405 nm (gum arabic; [VHH] 3 μg/ml (200 nM), gum arabic 100 μg/ml): 2.154 | absorbance at 405 nm (gum arabic; [VHH] 3 μg/ml (200 nM), no gum arabic coat (−)): 0.090 | binding to leaf discs at different temperatures (potato leaf discs): showed detectable binding | area of bound microcapsules (unrelated antigens [13]): 47.9 | area of bound microcapsules (unrelated antigens [14]): 84.5 | counts of bound microcapsules (microcapsules) (unrelated antigens [15]): 601
